This note sets out measurements from IntAct's records for PubMed 24561201.

B1: ATP-sensitive inward rectifier potassium channel 10 (Homo sapiens), P78508 (parent)
chain: MTSVAKVYYSQTTQTESRPLMGPGIRRRRVLTKDGRSNVRMEHIADKRFLYLKDLWTTFIDMQWRYKLLLFSATFAGTWFLFGVVWYLVAVAHGDLLELDPPANHTPCVVQVHTLTGAFLFSLESQTTIGYGFRYISEECPLAIVLLIAQLVLTTILEIFITGTFLAKIARPKKRAETIRFSQHAVVASHNGKPCLMIRVANMRKSLLIGCQVTGKLLQTHQTKEGENIRLNQVNVTFQVDTASDSPFLILPLTFYHVVDETSPLKDLPLRSGEGDFELVLILSGTVESTSATCQVRTSYLPEEILWGYEFTPAISLSASGKYIADFSLFDQVVKVASPSGLRDSTVRYGDPEKLKLEESLREQAEKEGSALSVRISNV

The assay covers variants of B1. The conditions noted are these: with MAGI1, A0A8I3NPD4.
Sequence of MAGI1, A0A8I3NPD4 (A0A8I3NPD4 entry or part of it): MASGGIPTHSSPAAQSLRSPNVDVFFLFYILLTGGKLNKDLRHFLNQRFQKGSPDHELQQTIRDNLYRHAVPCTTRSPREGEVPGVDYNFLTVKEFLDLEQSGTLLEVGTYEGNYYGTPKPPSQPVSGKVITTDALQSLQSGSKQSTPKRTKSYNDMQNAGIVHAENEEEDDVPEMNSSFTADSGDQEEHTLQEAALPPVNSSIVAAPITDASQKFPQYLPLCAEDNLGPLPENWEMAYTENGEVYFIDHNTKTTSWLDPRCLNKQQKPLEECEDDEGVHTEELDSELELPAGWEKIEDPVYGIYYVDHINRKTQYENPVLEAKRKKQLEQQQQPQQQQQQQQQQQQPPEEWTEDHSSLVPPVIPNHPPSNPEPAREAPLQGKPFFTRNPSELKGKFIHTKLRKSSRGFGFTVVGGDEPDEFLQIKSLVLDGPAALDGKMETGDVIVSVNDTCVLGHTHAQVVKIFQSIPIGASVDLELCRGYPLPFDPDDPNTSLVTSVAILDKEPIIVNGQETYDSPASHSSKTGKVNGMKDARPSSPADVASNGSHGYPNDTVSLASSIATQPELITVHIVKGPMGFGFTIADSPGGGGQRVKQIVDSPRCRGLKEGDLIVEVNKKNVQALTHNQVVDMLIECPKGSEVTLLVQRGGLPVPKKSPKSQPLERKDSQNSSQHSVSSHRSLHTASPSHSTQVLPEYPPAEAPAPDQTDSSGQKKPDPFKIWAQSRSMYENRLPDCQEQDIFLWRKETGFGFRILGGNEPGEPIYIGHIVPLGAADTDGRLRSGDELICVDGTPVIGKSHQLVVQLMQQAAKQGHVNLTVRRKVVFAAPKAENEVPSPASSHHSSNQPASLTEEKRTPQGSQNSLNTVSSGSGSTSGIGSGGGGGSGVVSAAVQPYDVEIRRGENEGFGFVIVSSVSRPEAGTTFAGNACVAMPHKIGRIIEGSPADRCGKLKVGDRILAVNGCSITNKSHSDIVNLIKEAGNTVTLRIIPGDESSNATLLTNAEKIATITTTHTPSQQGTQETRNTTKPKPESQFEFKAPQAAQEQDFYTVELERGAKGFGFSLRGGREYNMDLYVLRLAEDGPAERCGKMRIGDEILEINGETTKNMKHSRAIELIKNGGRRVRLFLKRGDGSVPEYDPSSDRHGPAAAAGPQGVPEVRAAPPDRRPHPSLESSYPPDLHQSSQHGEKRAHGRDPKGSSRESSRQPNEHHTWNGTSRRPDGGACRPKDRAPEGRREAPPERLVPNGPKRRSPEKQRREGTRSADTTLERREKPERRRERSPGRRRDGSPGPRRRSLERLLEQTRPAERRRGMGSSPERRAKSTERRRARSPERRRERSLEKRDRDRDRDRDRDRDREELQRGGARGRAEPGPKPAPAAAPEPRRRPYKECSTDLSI
Turning to A167V, the “effect of a mutation on the interaction” value was “decreasing interaction”.
